{
  "source": "patent US20230058779A1",
  "about": "“COMBINATION CANCER TREATMENT USING A PD-1 ANTAGONIST, AN ILT4 ANTAGONIST, AND LENVATINIB OR SALTS THEREOF” (Merck Sharp & Dohme LLC, priority 2020, published 2023)",
  "test_system": "participants with advanced solid tumors",
  "assay": "Phase 1 open label, multi-arm, multi-center study of MK-4830 as monotherapy or in combination with pembrolizumab (NCT03564691)",
  "format": "in vivo, human",
  "conditions": "1600 mg dose level, MK-4830 monotherapy cohort",
  "data": [
    {"substance": "MK-4830: anti-ILT4 antibody; light chain SEQ ID NO:5, heavy chain SEQ ID NO:10", "values": [
      {"measurement": "transient Grade 3 blood pressure increase", "value": "one episode"}
    ]}
  ]
}
